Test results reported in patent US20210017569A1, “Ligase Screening Assay” (UNIVERSITY OF DUNDEE, priority 2018, published 2021).

Molecular target: T1, GST-MYCBP2cat (Homo sapiens, UniProt O75592)
T1 construct: GST-tagged MYCBP2cat (Ser4378-Phe4640), wt and mutants, were expressed at 16° C. overnight; made in house; host or cells: E. coli BL21-DE3
T1 sequence (O75592 4416-4678 limits assumed): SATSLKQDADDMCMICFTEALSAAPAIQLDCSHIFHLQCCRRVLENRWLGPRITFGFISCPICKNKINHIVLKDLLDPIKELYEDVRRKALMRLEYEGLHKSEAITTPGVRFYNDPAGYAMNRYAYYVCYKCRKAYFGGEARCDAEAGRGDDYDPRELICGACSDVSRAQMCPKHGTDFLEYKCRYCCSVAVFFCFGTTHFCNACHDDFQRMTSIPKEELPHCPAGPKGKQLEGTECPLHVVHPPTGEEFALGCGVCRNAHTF
Test: Multiple turnover E2 discharge panel (threonine discharge)
Type: biochemical
Conditions: 17 E2s tested
Method: E2s were screened for threonine discharge activity with GST-MYCBP2cat as described for the amino acid panel. E2s were also incubated in the presence of threonine but in the absence of GST-MYCBP2cat. These samples provided a reference to distinguish between intrinsic E2˜Ub instability and E3-dependent discharge.

B1: UBE2E1: E2 conjugating enzyme (protein, UniProt P51965 2-193, looked up)
Ubiquitin-conjugating enzyme …: SDDDSRASTSSSSSSSSNQQTEKETNTPKKKESKVSMSKNSKLLSTSAKRIQKELADITLDPPPNCSAGPKGDNIYEWRSTILGPPGSVYEGGVFFLDITFTPEYPFKPPKVTFRTRIYHCNINSQGVICLDILKDNWSPALTISKVLLSICSLLTDCNPADPLVGSIATQYMTNRAEHDRMARQWTKRYAT
- E2 partner activity with MYCBP2cat: robust activity
